Molecular target: Kapβ2 (untagged, GST removed) (human) (UniProt Q92973)
Assay: ITC; 10 μM Kapβ2 in the cell, 100 μM or 200 μM MBP-FUS protein in the syringe; 20 mM Tris–HCl, 150 mM NaCl, 10% glycerol, 2 mM BME; 20 °C; single class of binding sites, global analysis of duplicates or triplicates

Sequence of Kapβ2 (untagged, GST removed) (human) (Q92973 9-898): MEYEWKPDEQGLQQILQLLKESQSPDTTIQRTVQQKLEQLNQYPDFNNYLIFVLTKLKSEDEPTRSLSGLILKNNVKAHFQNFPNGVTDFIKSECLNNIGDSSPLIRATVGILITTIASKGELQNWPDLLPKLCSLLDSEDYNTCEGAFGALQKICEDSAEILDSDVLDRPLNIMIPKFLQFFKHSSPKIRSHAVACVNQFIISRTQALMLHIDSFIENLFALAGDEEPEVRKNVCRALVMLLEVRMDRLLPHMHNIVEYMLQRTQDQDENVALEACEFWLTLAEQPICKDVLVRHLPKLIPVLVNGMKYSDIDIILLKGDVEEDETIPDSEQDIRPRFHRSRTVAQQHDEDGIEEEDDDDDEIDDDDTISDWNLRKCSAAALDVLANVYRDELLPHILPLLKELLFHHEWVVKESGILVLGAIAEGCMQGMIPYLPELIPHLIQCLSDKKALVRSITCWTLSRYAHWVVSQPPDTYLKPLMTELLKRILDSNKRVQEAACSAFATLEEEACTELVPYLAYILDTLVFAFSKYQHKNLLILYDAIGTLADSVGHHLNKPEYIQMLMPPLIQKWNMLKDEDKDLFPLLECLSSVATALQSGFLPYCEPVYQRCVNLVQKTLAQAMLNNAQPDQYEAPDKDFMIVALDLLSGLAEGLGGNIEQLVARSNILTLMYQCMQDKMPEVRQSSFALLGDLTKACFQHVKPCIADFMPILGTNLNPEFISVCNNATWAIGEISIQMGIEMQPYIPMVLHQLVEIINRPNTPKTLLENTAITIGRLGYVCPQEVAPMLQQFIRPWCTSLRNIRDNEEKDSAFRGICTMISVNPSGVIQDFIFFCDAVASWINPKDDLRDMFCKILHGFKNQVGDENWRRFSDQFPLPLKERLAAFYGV

Substance: MBP-FUS(453–500) (RGG3) (from UniProt P35637 453-500) (domain or fragment)
- Kd: 6 µM
